Results published in paper PMC11460708 (PLOS Pathogens, 2024).

Columns and labels:
BA.1 RBD = target: T1, BA.1 RBD (SARS-CoV-2 Omicron BA.1 (GISAID …, strain)); test: SPR; conditions: both partners purified
T1 construct: not shown: His tag, C-terminal, kept

XBB.1.5 RBD = target: T2, XBB.1.5 RBD (SARS-CoV-2 Omicron XBB.1.5 (GISAID …, E484A (prototypic numbering) | F490S (prototypic numbering))); test: SPR; conditions: both partners purified
T2 construct: not shown: His tag, C-terminal, kept

B1: Nanosota-3C (VHH)
VHH: QVQLQESGGGLVQAGGSLRLSCAASGSIFSPNTMGWFRQALGKQREGVAFISSIASTSYWLPVKGRFTITRDNTKNTVHLQMNSLIPEDTAVYYCYAVDKSQDYWGQGTQVTVSS
Kd (BA.1 RBD): 27.3 nM
Kd (XBB.1.5 RBD): 2.04 nM
